Assay results as given in US20200216495A1 (ADRX, published 2020).
Where “and” joins values, the source holds several entries; their conditions need not be identical. Equal entries are not always repeated. Square brackets hold non-standard residues; d marks the D form. Ends that are not written are not given here. dCit = NC(=O)NCCC[C@@H](N)C(=O)O

Target: Tau40 P301L protein (human)
Assay: cell-based or functional assay

Binder	IC50, Tau40 assay (ThT)
[dW][dR][dL][dK][dV][dR][dW][dF] [wrlkvrwf (PEPTIDE ID NO: 218)]	840 nM
[dL][dR][dI][dR][dL][dH][dY][dH] [lrirlhyh (PEPTIDE ID NO: 420)]	970 nM
[dL][dK][dI][dR][dI][dH][dY][dL] [lkirihyl (PEPTIDE ID NO: 193)]	650 nM
[dL][dK][dF][dR][dI][dH][dY] [lkfrihy (PEPTIDE ID NO: 216)]	830 nM
[dF][dK][dI][dR][dI][dH][dY][dF] [fkirihyf (PEPTIDE ID NO: 232)]	910 nM
[dW][dR][dR][dK][dV][dR][dW][dW] [wrrkvrww (PEPTIDE ID NO: 220)]	850 nM
[dR][dL][dK][dV][dR][dW][dW][dW] [rlkvrwww (PEPTIDE ID NO: 224)]	870 nM
[dW][dK][dL][dK][dL][dW][dW][dW] [wklklwww (PEPTIDE ID NO: 14)]	940 nM
[dR][dL][dR][dI][dH][dW][dF] [rlrihwf (PEPTIDE ID NO: 446)]	2690 nM
[dW][dR][dL][dR][dV][dR][dW][dW] [wrlrvrww (PEPTIDE ID NO: 238)]	1000 nM
[dH][dW][dR][dW][dR][dW][dR] [hwrwrwr (PEPTIDE ID NO: 326)]	2690 nM
[dR][dL][dK][dI][dR][dI][dH][dY] [rlkirihy (PEPTIDE ID NO: 451)]	510 nM
[dW][dR][dF][dK][dV][dR][dW] [wrfkvrw (PEPTIDE ID NO: 226)]	880 nM
[dT][dL][dK][dI][dR][dI][dH][dY] [tlkirihy (PEPTIDE ID NO: 235)]	940 nM
[dL][dK][dI][dW][dI][dY][dY][dH] [lkiwiyyh (PEPTIDE ID NO: 237)]	970 nM
[dE][dW][dR][dL][dK][dV][dR][dW] [ewrlkvrw (PEPTIDE ID NO: 229)]	900 nM
[dW][dW][dR][dL][dK][dV][dR][dW] [wwrlkvrw (PEPTIDE ID NO: 234)]	930 nM
[dK][dL][dK][dL][dR][dW][dW] [klklrww (PEPTIDE ID NO: 448)]	920 nM
[dR][dR][dL][dK][dV][dR][dW][dW] [rrlkvrww (PEPTIDE ID NO: 225)]	880 nM
[dL][dR][dL][dK][dV][dR][dW][dW] [lrlkvrww (PEPTIDE ID NO: 221)]	850 nM
[dW][dR][dL][dR][dI][dH][dM] [wrlrihm (PEPTIDE ID NO: 453)]	580 nM

Binder	IC50, Tau40 assay (ThT)
[dL][dK][dI][dR][dI][dM][dY] [lkirimy (PEPTIDE ID NO: 219)]	840 nM
[dW][dR][dL][dR][dI][dM][dW] [wrlrimw (PEPTIDE ID NO: 452)]	540 nM
[dW][dR][dL][dR][dI][dH][dW] [wrlrihw (PEPTIDE ID NO: 101)]	310 nM and 320 nM
[dL][dK][dI][dR][dF][dH][dY] [lkirfhy (PEPTIDE ID NO: 211)]	810 nM
[dW][dR][dL][dK][dE][dR][dW][dW] [wrlkerww (PEPTIDE ID NO: 241)]	1010 nM
[dW][dW][dL][dR][dI][dH][dW] [wwlrihw (PEPTIDE ID NO: 425)]	940 nM
[dF][dK][dL][dK][dL][dR][dW] [fklklrw (PEPTIDE ID NO: 413)]	1050 nM
[dL][dR][dI][dR][dI][dH][dY][dH] [lririhyh (PEPTIDE ID NO: 239)]	1000 nM
[dL][dK][dI][dR][dI][dF][dY][dH] [lkirifyh (PEPTIDE ID NO: 214)]	820 nM
[dR][dK][dI][dR][dI][dH][dY][dH] [rkirihyh (PEPTIDE ID NO: 227)]	890 nM
[dW][dR][dL][dK][dV][dA][dW] [wrlkvaw (PEPTIDE ID NO: 248)]	1080 nM
[dL][dK][dI][dR][dI][dH][dL][dH] [lkirihlh (PEPTIDE ID NO: 240)]	1000 nM
[dH][dR][dL][dK][dV][dR][dW][dH] [hrlkvrwh (PEPTIDE ID NO: 213)]	820 nM
[dL][dK][dL][dR][dI][dR][dH][dH] [lklrirhh (PEPTIDE ID NO: 415)]	1010 nM
[dL][dK][dL][dH][dL][dH][dF][dH] [lklhlhfh (PEPTIDE ID NO: 434)]	1010 nM
[dF][dK][dL][dR][dL][dR][dH][dW] [fklrlrhw (PEPTIDE ID NO: 123)]	1070 nM
[dL][dK][dI][dK][dI][dH][dY] [lkikihy (PEPTIDE ID NO: 233)]	930 nM
[dL][dK][dI][dW][dI][dK][dY][dH] [lkiwikyh (PEPTIDE ID NO: 212)]	810 nM
[dF][dR][dL][dK][dV][dR][dW][dW] [frlkvrww (PEPTIDE ID NO: 231)]	910 nM
[dL][dR][dI][dK][dI][dR][dF][dH] [lrikirfh (PEPTIDE ID NO: 421)]	970 nM

Other lines, results leading:

IC50, Tau40 assay (ThT)	Binder
1040 nM	[dW][dR][dM][dR][dI][dH][dW] [wrmrihw (PEPTIDE ID NO: 246)]
1080 nM and 1100 nM	[dF][dK][dL][dK][dI][dK][dW] [fklkikw (PEPTIDE ID NO: 132)]
830 nM	[dF][dK][dL][dK][dL][dR][dW][dF] [fklklrwf (PEPTIDE ID NO: 57)]
860 nM	[dL][dK][dI][dL][dI][dH][dY][dH] [lkilihyh (PEPTIDE ID NO: 223)]
830 nM	[dR][dW][dR][dL][dK][dV][dR][dW] [rwrlkvrw (PEPTIDE ID NO: 217)]
1040 nM	[dL][dK][dI][dR][dI][dH][dY] [lkirihy (PEPTIDE ID NO: 245)]
930 nM and 980 nM	[dL][dQ][dF][dD][dL][dQ][dY][dF] [lqfdlqyf (PEPTIDE ID NO: 142)]
1010 nM	[dM][dR][dL][dR][dI][dH][dW] [mrlrihw (PEPTIDE ID NO: 242)]
960 nM	G[dL][dK][dI][dR][dI][dH][dY] [glkirihy (PEPTIDE ID NO: 236)]
900 nM	[dL][dK][dI][dR][dI][dR][dF][dH] [lkirirfh (PEPTIDE ID NO: 414)]
2670 nM	[dW][dK][dL][dW][dL][dR][dW][dW] [wklwlrww (PEPTIDE ID NO: 12)]
820 nM	[dW][dR][dF][dK][dF][dR][dW] [wrfkfrw (PEPTIDE ID NO: 215)]
790 nM	G[dW][dR][dL][dK][dV][dR][dW] (also: all residues D-form, Gly1 is achiral) [gwrlkvrw (PEPTIDE ID NO: 209)]
1010 nM	[dK][dL][dK][dI][dR][dI][dH][dY] [klkirihy (PEPTIDE ID NO: 243)]
810 nM	[dL][dR][dL][dK][dV][dR][dW][dL] [lrlkvrwl (PEPTIDE ID NO: 210)]
910 nM	[dW][dR][dL][dK][dV][dR][dW][dR] [wrlkvrwr (PEPTIDE ID NO: 230)]
1030 nM	[dL][dK][dI][dR][dI][dCit][dY] [lkirizy (PEPTIDE ID NO: 244)]
1040 nM	[dF][dL][dK][dI][dR][dI][dH][dY] [flkirihy (PEPTIDE ID NO: 247)]
860 nM	[dW][dR][dL][dK][dV][dR][dW][dH] [wrlkvrwh (PEPTIDE ID NO: 222)]
